The record followed here is paper PMC9817179.

One test has as its target Halo-TAF15(IDR)-NLS (UniProt Q92804). The test can be described thus: live-cell single-particle tracking (SPT), residence time in puncta; living U2OS cells at 37°C, 5% CO2; HILO illumination; PA-JF646-labelled single molecules tracked (500 ms per frame, 2000 frames) within puncta of the same protein seen with JFX549; in-puncta trajectories; specific residence time of a two-component exponential fit, corrected for photobleaching with H2B-Halo.

The target of another test is NLS-TAF15(IDR)-Halo-FTH1 (UniProt Q92804). The description is as above.

Chain of Halo-TAF15(IDR)-NLS (Q92804 whole entry): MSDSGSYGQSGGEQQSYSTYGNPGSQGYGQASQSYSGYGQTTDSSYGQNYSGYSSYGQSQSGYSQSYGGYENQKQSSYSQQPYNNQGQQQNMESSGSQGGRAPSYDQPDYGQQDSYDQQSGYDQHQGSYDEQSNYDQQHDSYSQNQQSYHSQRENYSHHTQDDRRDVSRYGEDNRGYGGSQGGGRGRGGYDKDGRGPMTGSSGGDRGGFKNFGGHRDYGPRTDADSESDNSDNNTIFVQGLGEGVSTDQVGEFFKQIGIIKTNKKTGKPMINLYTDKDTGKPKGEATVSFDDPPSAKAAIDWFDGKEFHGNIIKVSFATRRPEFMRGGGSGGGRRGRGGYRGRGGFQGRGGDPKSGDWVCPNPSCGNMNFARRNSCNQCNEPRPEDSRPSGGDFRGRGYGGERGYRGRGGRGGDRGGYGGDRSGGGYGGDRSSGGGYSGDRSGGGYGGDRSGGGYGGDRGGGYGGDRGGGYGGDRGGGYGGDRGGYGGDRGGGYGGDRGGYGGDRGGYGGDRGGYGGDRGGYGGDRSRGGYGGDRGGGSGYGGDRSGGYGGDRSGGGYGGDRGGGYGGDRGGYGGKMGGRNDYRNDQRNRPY

Turning to “Halo-TAF15(IDR)-NLS (from UniProt Q92804 2-205) (domain or fragment)”, the residence time (RT) at its puncta with Halo-TAF15(IDR)-NLS was 10.2 s.

Consider “NLS-TAF15(IDR)-Halo-FTH1 (from UniProt Q92804 2-205)”, for which the residence time (RT) at its puncta with NLS-TAF15(IDR)-Halo-FTH1 stood at 64.2 s.
